Measured values reported in patent US20230151373A1, “CHIMERIC POLYPEPTIDE FOR REGULATING IMMUNE CELLS” (STICHTING HET NEDERLANDS KANKER INSTITUUT-ANTONI VAN …, priority 2019, published 2023).

System: primary human T cells modified with the HLA class I restricted CDK4 TCR
Assay: Cytokine release and degranulation assay, CDK4 TCR T cells co-cultured with CDK4 peptide loaded T2 cells
Format: cell-based
Experimental: For use as T cell targets, T2 and CBH 5477 cells were loaded with the indicated concentrations of HLA-A*02:01 restricted mutant CDK4 peptide (ALDPHSGHFV), HLA A*02:01 restricted NY-ESO-1 peptide (SLLMWITQA), or HLA-DR1 restricted CMV peptide (KYQEFFWDANDIYRI) in IMDM for 1 hour at 37° C. Cells were then washed once and used in co-culture experiments.
T cells and NK cells were pretreated with the indicated concentrations of asunaprevir (MedChemExpress, #HY-14434), grazoprevir (MedChemExpress, #HY-15298), dTAG-13 (Tocris, #6605) or DMSO control in T cell media (RPMI/10% human serum/penicillin-streptomycin, 100 IU/ml IL2 and 5 ng/ml IL15) or NK cell media (RPMI/8% FCS/penicillin-streptomycin, 500 IU/ml IL2), respectively, for 24 hours before co-culture experiments. 100,000 T cells or NK cells and 100,000 of indicated tumor cells were mixed in T cell or NK cell media supplemented with golgi-plug (1:1000 dilution, BD, #51-2301KZ) and anti-LAMP1-APC (1:100 dilution, Biolegend, #328620) in the presence of indicated drugs or DMSO control in 96-well plates and incubated for 5 hours at 37° C.
After incubation, cells were washed once with PBS and stained with IR dye (Invitrogen, #L34976) at 1:400 dilution for 5 minutes at 4° C. Subsequently, cells were washed once with FACS buffer (PBS plus 0.5% BSA) and stained with anti-CD8-PerCP Cy5.5 (1:20 dilution, BD, #341050), anti-CD4 BV711 (1:50 dilution, Biolegend, #317440), anti-murine constant TCR-PE (in experiments with transduced TCRs, 1:200 dilution, BD, #553172) or cetuximab-PE (in experiments with transduced CAR construct containing truncated human EGFR reporter, 1:200 dilution, R&D Systems, #FAB9577P) for 20 minutes at 4° C. Cells were then washed once with FACS buffer and fixed with BD fixation and permeabilization solution (#51-2090KZ) for 20 minutes at 4° C.
Following permeabilization, cells were washed twice with BD perm/wash buffer (#51-2091KZ) and stained with anti-IFNγ-BV421 (1:100 dilution, BD, #564791), anti-IL-2-PE-Cy7 (1:100 dilution, BD, #560707) and anti-TNFα-BV650 (1:100 dilution, Biolegend, #502938) diluted in perm/wash buffer for 20 min at 4° C. Cells were then washed twice, resuspended in 100 μl FACS buffer and analyzed directly on a Fortessa Special Order analyzer. Data were analyzed using FlowJo and Prism 7 software.

[1] = T cells co-cultured with 10 nM peptide loaded T2 tumor cells, relative to vector control

B1: Zap70 2×SH2: the Zap70 SH2 domains without inhibitory tail; human Zap70 (P43403, 1-264 aa) (protein, UniProt P43403 1-264, looked up, fragment)
chain: MPDPAAHLPFFYGSISRAEAEEHLKLAGMADGLFLLRQCLRSLGGYVLSLVHDVRFHHFPIERQLNGTYAIAGGKAHCGPAELCEFYSRDPDGLPCNLRKPCNRPSGLEPQPGVFDCLRDAMVRDYVRQTWKLEGEALEQAIISQAPQVEKLIATTAHERMPWYHSSLTREEAERKLYSGAQTDGKFLLRPRKEQGTYALSLIYGKTVYHYLISQDKAGKYCIPEGTKFDTLWQLVEYLKLKADGLIYCLKEACPNSSASNASG
- effect of construct expression on T cell cytokine production and degranulation (no drug, T2 cells loaded with CDK4 neoantigen): modest inhibition of T cell functions

B2: Zap70-PD1: human Zap70 fragment (1-264 aa), a GGS linker, the human PD1 intracellular domain (192-288 aa) (protein)
chain: MPDPAAHLPFFYGSISRAEAEEHLKLAGMADGLFLLRQCLRSLGGYVLSLVHDVRFHHFPIERQLNGTYAIAGGKAHCGPAELCEFYSRDPDGLPCNLRKPCNRPSGLEPQPGVFDCLRDAMVRDYVRQTWKLEGEALEQAIISQAPQVEKLIATTAHERMPWYHSSLTREEAERKLYSGAQTDGKFLLRPRKEQGTYALSLIYGKTVYHYLISQDKAGKYCIPEGTKFDTLWQLVEYLKLKADGLIYCLKEACPNSSASNASGGGSCSRAARGTIGARRTGQPLKEDPSAVPVFSVDYGELDFQWREKTPEPPVPCVPEQTEYATIVFPSGMGTSSPARRGSADGPRSAQPLRPEDGHCSWPL
- reduction in percentage responding cells, IFNγ [1]: 104 fold
- reduction in percentage responding cells, IL-2 [1]: 110 fold
- reduction in percentage responding cells, TNFα [1]: 81 fold
- reduction in percentage responding cells, cell surface LAMP1 [1]: 40 fold
